Results as given in patent US20230203107A1, “PEPTIDE FOR TREATING SEPSIS DERIVED FROM RV3364C PROTEIN OF MYCOBACTERIUM TUBERCULOSIS” (priority 2021, published 2023).

Key:
[1] = tested on: macrophages (BMDM); format: cell-based, mouse; conditions: 1 μg/ml, 18 hours, ELISA
[2] = molecular target: T1, EGFLAM (EGF-like Fibronectin type III and Laminin G domains) (Homo sapiens, UniProt Q63HQ2); assay: HuProt human proteome microarray, binding of rRv3364c; conditions: cell-free protein microarray, signal at 532 nm
T1 construct: containing 20,000 or more full-length recombinant human proteins; purchased CDI Labs, USA (HuProt Human Proteome Microarray)
T1 sequence (Q63HQ2 25-1017): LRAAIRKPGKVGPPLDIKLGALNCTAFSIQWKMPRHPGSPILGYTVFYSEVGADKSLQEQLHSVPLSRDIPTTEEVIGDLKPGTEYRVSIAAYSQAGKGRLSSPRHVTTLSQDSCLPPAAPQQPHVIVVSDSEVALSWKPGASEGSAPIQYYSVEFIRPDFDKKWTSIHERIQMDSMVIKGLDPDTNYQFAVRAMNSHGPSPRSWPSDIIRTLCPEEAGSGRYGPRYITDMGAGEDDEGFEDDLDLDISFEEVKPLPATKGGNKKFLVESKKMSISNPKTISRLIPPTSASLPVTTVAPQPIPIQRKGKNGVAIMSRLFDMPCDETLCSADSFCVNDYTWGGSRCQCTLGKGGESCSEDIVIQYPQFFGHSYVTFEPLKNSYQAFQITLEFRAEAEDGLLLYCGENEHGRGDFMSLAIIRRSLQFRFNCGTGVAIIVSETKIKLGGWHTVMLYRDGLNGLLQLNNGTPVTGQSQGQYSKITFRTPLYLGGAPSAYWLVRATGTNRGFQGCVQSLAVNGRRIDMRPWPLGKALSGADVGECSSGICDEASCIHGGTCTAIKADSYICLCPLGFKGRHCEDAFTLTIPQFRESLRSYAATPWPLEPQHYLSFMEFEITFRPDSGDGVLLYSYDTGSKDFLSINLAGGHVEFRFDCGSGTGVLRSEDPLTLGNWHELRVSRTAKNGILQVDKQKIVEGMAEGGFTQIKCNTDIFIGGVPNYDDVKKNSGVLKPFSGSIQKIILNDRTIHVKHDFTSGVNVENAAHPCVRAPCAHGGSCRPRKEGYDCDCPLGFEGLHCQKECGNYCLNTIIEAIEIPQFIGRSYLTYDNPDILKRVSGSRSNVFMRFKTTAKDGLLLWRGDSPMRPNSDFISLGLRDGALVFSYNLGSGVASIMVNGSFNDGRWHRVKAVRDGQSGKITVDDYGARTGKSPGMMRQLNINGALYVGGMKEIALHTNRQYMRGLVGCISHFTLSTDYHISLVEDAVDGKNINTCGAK
From the text: (§1) FIGS. 1A and 1B illustrate results of screening candidate proteins predicted to potentially interact with rRv3364c in a CDI HuProt™ Human Proteome Microarray. Each figure illustrates a section of a protein array showing a positive response. A signal at 532 nm was stronger in an rRv3364c group than in a control group;
(§2) In order to identify a protein binding to rRv3364c, human protein microarrays (CDI Labs, USA) containing 20,000 or more full-length recombinant human proteins were used. Specifically, the protein microarrays were treated with a blocking buffer (2% BSA in PBS, 0.1% […]) for 2 hours. 3 μg of […] on the microarrays at 4° C. for 8 hours. Thereafter, each array was treated with 1 μg of streptavidin fluorescence Alexa Fluor 532 nm at 4° C. for 1 hour. Microarray results were detected using a GenePix 4100A microarray laser scanner (Molecular Devices, USA).
(§3) A customized protein binding assay was used to identify interacting proteins, and candidate proteins capable of potentially interacting with rRv3364c were selected. […] In FIG. 1A, an affinity score (A score) is a normalized signal intensity of two overlapping points, and a specificity score (B score) is a difference between the affinity score of the protein and the protein ranked next thereto.

[3] = molecular target: T2, ZBTB46 (zinc finger and BTB domain-containing 46) (Homo sapiens, UniProt Q86UZ6); assay: as above; conditions: cell-free protein microarray, signal at 532 nm
T2 construct: containing 20,000 or more full-length recombinant human proteins; purchased CDI Labs, USA (HuProt Human Proteome Microarray)
T2 sequence (Q86UZ6 1-589): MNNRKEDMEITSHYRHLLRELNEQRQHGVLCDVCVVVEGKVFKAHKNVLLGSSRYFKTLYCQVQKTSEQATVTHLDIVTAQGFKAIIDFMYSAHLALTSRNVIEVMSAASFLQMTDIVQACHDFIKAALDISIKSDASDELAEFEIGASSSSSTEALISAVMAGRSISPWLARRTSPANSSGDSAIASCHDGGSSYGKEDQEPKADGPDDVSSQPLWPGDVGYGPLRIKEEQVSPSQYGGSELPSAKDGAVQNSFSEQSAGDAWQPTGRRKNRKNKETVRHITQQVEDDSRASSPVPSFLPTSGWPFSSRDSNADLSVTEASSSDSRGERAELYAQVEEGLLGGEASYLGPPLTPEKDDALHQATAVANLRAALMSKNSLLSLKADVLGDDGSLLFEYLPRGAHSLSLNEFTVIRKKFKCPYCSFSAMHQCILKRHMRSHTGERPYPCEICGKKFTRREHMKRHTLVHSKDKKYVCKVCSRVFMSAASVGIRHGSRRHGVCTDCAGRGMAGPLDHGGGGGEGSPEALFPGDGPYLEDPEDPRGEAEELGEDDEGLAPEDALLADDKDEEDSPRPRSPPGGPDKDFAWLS
From the text: as §1, §2, §3

[4] = molecular target: T3, YEATS4 (YEATS domain-containing protein 4) (Homo sapiens, UniProt O95619); assay: as above; conditions: cell-free protein microarray, signal at 532 nm
T3 construct: containing 20,000 or more full-length recombinant human proteins; purchased CDI Labs, USA (HuProt Human Proteome Microarray)
From the text: as §1, §2, §3

[5] = molecular target: T4, SNX9 (sorting nexin 9) (Homo sapiens, UniProt Q9Y5X1); assay: as above; conditions: cell-free protein microarray, signal at 532 nm
T4 construct: containing 20,000 or more full-length recombinant human proteins; purchased CDI Labs, USA (HuProt Human Proteome Microarray)
From the text: as §1, §2, §3

[6] = molecular target: T5, SNX9 (Mus musculus, UniProt Q91VH2); assay: Co-immunoprecipitation, cell fractionation and immunostaining in macrophages and HEK293T cells; format: cell-based; conditions: cell fractionation (Raw264.7) and immunostaining (BMDM), 1 μg/ml rRv3364c, time course
T5 construct: harvesting BMDM cells with different treatment times of 1 μg/ml rRv3364c, performing immunoprecipitation (IP) with αHis; endogenous in cells; host or cells: mouse BMDM, Raw264.7

[7] = tested on: SNX9; assay: as above; format: cell-based; conditions: macrophages and HEK293T cells, 1 μg/ml rRv3364c, 15 to 30 min
[8] = molecular target: T6, YEATS4 (Mus musculus, UniProt Q9CR11); assay: as above; format: cell-based; conditions: cell fractionation (Raw264.7) and immunostaining (BMDM), 1 μg/ml rRv3364c, time course
T6 construct: harvesting BMDM cells with different treatment times of 1 μg/ml rRv3364c, performing immunoprecipitation (IP) with αHis; endogenous in cells; host or cells: mouse BMDM, Raw264.7

[9] = tested on: YEATS4; assay: as above; format: cell-based; conditions: macrophages and HEK293T cells, 1 μg/ml rRv3364c, 15 to 30 min
[10] = tested on: macrophages
[11] = molecular target: T7, cathepsin G (Homo sapiens, UniProt P08311); conditions: membrane protein of macrophages; cited from earlier work
T7 sequence (P08311 21-244): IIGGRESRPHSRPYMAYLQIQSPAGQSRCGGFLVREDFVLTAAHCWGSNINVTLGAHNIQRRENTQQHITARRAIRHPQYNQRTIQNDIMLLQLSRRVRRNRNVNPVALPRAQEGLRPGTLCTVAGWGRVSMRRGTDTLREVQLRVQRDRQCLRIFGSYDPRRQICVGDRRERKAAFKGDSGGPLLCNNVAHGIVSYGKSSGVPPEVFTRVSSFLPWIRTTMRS

T3 sequence (O95619 whole entry, the tested form may be a part): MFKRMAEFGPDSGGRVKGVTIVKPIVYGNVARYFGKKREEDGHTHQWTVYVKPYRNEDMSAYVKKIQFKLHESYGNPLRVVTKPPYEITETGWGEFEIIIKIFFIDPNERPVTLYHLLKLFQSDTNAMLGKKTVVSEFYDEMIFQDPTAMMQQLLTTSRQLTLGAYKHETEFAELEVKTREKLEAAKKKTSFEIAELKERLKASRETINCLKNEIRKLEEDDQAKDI
T4 sequence (Q9Y5X1 whole entry): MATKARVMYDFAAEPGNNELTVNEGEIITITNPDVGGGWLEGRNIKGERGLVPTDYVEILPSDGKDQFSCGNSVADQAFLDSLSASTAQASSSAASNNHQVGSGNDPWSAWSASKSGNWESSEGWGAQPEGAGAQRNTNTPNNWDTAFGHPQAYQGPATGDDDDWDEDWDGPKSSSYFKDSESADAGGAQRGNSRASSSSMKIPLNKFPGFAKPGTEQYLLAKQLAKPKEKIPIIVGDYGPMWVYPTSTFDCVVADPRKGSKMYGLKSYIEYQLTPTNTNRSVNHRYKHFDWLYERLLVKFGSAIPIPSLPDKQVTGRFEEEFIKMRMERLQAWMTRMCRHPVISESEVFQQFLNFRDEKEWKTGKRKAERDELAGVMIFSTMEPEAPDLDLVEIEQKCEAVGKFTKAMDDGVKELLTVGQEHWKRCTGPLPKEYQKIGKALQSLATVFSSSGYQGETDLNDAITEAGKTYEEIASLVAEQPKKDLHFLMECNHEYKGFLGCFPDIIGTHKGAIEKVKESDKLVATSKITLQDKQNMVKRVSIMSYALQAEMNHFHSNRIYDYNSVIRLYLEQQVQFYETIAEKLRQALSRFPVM
T6 sequence (Q9CR11 whole entry): as the sequence (O95619 whole entry, the tested form may be a part) above, with A224T counted along it
T5 sequence (Q91VH2 whole entry): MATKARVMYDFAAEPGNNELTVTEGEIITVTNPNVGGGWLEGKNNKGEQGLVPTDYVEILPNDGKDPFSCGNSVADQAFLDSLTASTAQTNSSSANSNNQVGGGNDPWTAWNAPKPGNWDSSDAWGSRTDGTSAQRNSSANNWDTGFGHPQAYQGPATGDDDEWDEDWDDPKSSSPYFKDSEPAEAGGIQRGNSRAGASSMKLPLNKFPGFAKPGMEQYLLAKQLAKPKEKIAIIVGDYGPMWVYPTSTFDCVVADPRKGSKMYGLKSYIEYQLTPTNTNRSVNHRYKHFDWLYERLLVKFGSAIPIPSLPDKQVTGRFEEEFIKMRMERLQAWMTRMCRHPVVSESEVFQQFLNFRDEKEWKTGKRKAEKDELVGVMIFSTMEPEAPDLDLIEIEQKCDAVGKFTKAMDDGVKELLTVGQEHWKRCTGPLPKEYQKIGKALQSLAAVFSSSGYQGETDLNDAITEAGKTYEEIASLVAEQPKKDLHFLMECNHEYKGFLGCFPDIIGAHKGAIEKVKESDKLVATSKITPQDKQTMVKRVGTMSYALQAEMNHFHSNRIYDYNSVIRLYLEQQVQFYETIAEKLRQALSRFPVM

Substance: rRv3364c: recombinant Rv3364c protein of MTB H37Rv with N-terminal 6xHis tag, expressed in E. coli, 13 kDa
- production of pro-inflammatory cytokines (TNF-α, IL-6, and IL-12p40) and anti-inflammatory cytokines (IL-10) ([1]; BMDM, through TLR4/MyD88/TRAF6/TBK1-IRAK1 pathway): promoted the production
- production of rRv3364c-induced inflammatory cytokines in SNX9−/− compared to SNX9+/+ macrophages ([1]; SNX9−/− BMDM): significantly reduced
- affinity with rRv3364c [2]: high affinity
- affinity with rRv3364c [3]: high affinity
- affinity with rRv3364c [4]: high affinity
- affinity with rRv3364c [5]: high affinity
- intracellular position of binding to SNX9 [6]: initially bound to SNC9 in the cytoplasm
- interaction with endogenous and extrinsic SNX9 (co-immunoprecipitation) [7]: strongly interacted
- intracellular position of binding to YEATS4 [8]: migrated to the nucleus to bind to YEATS4
- interaction with endogenous and extrinsic YEATS4 (co-immunoprecipitation) [9]: strongly interacted
- rRv3364c-induced cytotoxicity [10]: not observed
- enzymatic activity of cathepsin G [11]: inhibit its enzymatic activity
